For the test, the target named is RNA polymerase β subunit of Escherichia coli (Escherichia coli, UniProt P0A8V2 1-1342). Nature of the test: cryo-EM structure.
Sequence of RNA polymerase β subunit of Escherichia coli (P0A8V2 whole entry): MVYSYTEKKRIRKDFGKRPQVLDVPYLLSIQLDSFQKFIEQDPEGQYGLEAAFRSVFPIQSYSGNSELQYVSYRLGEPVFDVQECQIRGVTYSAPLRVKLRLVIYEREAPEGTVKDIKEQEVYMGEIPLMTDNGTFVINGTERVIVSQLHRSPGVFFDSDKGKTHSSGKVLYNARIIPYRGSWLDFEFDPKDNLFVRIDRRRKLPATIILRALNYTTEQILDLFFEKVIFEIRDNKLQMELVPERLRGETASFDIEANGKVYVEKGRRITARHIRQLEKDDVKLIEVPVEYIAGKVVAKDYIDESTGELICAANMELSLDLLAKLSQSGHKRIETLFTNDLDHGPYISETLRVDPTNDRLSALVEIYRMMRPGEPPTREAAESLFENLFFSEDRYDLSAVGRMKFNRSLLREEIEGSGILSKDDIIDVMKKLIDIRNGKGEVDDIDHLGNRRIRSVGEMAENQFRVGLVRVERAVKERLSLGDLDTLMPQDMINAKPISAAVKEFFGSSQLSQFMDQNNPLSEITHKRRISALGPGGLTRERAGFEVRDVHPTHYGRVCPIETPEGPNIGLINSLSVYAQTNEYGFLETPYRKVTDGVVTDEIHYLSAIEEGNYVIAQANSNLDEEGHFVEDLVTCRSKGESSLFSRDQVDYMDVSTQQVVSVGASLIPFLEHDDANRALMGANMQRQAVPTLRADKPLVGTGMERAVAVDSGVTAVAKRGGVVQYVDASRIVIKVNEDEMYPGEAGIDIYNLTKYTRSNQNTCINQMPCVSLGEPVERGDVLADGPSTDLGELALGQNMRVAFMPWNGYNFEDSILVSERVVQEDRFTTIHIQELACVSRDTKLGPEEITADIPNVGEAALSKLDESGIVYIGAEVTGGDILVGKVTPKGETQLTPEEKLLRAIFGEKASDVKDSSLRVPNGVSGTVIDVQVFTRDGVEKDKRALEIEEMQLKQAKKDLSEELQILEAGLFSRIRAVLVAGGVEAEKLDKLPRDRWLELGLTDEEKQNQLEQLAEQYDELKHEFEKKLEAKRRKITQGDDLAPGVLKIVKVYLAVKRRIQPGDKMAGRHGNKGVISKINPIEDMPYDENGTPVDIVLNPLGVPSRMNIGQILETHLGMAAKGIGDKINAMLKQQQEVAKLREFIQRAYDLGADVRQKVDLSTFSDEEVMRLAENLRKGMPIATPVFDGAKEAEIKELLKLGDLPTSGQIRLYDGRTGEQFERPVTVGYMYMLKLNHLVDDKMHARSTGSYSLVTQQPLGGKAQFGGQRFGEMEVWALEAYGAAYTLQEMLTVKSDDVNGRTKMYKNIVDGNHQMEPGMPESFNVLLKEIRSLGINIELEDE

B1: TraR (natural protein, Escherichia coli)
chain: SDEADEAYSVTEQLTMTGINRIRQKINAHGIPVYLCEACGNPIPEARRKIFPGVTLCVECQAYQERQRKHYA
For the molecule B1, the binding result is “binds”.
